Values of other authors, collected in article PMC8364556.

Target: IL-10R complex (Homo sapiens) (UniProt Q13651)
Sequence (Q13651 22-235, chain 1 of 2): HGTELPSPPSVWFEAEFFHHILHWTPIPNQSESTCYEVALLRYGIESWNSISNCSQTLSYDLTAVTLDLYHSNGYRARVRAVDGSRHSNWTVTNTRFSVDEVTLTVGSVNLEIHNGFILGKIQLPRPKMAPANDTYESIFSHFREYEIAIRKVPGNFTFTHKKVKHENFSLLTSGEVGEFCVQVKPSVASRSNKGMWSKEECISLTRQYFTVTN
Sequence (Q08334 20-220, chain 2 of 2, further chain): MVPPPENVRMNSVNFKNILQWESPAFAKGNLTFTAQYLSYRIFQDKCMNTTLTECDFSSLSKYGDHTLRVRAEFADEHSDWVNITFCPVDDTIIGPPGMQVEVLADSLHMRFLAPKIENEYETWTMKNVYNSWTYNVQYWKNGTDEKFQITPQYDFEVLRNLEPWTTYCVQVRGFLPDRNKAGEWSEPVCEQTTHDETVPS

Chain of IL-10 (P22301 19-178): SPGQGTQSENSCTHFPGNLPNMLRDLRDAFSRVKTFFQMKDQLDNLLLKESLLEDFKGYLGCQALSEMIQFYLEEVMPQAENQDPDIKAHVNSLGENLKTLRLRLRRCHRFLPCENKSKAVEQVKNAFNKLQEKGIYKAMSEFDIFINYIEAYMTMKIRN

Question: Which Kd does the source give for IL-10 (from UniProt P22301) here?
Answer: The Kd was 0.56 nM.
